Measurements reported in patent US20140314744A1 (NEOTOPE BIOSCIENCES, published 2014).
Values belong to the binder of their own block, whether it stands above or below them.

Key:
[1] = molecular target: T1, Ig2 domain (mouse, UniProt Q8R2Y2); experiment: ForteBio Octet Red, anti-human IgG Fc biosensor loaded with the Ig2 domain hFc protein, dipped into clone 17 or SP2 media
T1 construct: immunoglobulin domain 2 alone; also called Murine MCAM domain 2 (Ig2)
T1 sequence (Fc fusion chain, looked up): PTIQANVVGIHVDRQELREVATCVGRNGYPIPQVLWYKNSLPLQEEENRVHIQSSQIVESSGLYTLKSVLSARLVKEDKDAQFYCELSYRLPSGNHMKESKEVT
Text: (§1) The following protocol was used: ForteBio Domain Mapping Protocol. ForteBio anti-human IgG Fc biosensors were used to immobilize various mouse MCAMhFc domains including full length mouse MCAMhFc protein on to biosensor surface. These sensors were dipped into either clone 15 or 17 MCAM specific antibody for detection of binding to these domains or full length protein. After loading these samples into a black 96 well plate, the Octet Red was programmed as follows: 60 seconds for baseline #1; 180 seconds for loading various domains; 60 seconds for baseline #2; 180 seconds for association of antibody to domain; and 240 seconds for dissociation of antibody from domain.
(§2) For FIG. 10A-B, clones 15 and 17 were tested against the following protein samples (all have human IgG Fc tag): […]

[2] = molecular target: T2, human MCAM (on transfected cells) (human, UniProt P43121 24-646); experiment: flow cytometry on MCAM transfected cells mixed with CFSE-labelled untransfected cells
T2 construct: Cells transfected with human MCAM; also called CD146; MUC18
T2 chain: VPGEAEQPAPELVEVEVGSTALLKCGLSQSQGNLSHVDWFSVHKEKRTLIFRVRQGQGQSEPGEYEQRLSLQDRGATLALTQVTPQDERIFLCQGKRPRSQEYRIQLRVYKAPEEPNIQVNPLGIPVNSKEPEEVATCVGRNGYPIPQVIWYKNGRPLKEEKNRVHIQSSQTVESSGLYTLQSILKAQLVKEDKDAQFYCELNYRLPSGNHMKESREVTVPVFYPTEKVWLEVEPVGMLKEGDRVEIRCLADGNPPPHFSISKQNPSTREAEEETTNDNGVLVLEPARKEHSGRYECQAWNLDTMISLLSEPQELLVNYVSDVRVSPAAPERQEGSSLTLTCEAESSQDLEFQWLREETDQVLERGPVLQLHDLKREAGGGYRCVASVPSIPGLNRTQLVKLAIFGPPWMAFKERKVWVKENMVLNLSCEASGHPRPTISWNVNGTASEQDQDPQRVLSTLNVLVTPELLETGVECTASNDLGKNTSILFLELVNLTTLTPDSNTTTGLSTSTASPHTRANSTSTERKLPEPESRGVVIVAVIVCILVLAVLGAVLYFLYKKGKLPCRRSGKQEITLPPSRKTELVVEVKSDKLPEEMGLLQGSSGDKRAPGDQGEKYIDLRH
Description: (§3) MCAM-Fc was generated by fusing the extracellular domain of murine MCAM to human IgG and produced in CHO cells using standard techniques. Lou/M rats were immunized with 100 μg of MCAM-Fc protein in CFA (1:1 volume). Rats were boosted two times at two week intervals with MCAM-Fc protein in incomplete Freund's adjuvant (IFA) (1:1 volume). Hybridomas were generated from immunized rats using standard protocols and clones were selected by Clonepix. CHO cells were transfected with the full length murine MCAM gene and selected for stable expression using neomycin and standard techniques. Parental CHO cells (MCAM negative) were fluorescently labeled with carboxyfluorescein succinimidyl ester (CFSE) using standard techniques and mixed at a 1:1 ratio with unlabeled MCAM transfected CHO cells. Hybridoma supernatants were incubated with this mixture of cells for 30 minutes and binding of potential MCAM specific antibodies was detected with a fluorescently labeled anti-rat secondary antibody (Jackson Immuno) by flow cytometry.
(§4) Monoclonal antibodies against mouse MCAM were generated as described in Materials and Methods above. The specific binding between the monoclonal antibody and MCAM was confirmed by assessing the monoclonal antibody's ability to bind to cells transfected with either mouse or human MCAM. For this, untransfected cells were labeled with carboxyfluorescein succinimidyl ester (CFSE) and mixed with unlabeled MCAM transfected cells. Untransfected cells (in blue) could therefore be differentiated.

[3] = molecular target: T3, mouse MCAM (full length, on transfected CHO cells) (mouse, UniProt Q8R2Y2 24-648); experiment: as above
T3 construct: whole, on cells; also called murine MCAM; mouse MCAM transfected CHO cells
T3 sequence (looked up): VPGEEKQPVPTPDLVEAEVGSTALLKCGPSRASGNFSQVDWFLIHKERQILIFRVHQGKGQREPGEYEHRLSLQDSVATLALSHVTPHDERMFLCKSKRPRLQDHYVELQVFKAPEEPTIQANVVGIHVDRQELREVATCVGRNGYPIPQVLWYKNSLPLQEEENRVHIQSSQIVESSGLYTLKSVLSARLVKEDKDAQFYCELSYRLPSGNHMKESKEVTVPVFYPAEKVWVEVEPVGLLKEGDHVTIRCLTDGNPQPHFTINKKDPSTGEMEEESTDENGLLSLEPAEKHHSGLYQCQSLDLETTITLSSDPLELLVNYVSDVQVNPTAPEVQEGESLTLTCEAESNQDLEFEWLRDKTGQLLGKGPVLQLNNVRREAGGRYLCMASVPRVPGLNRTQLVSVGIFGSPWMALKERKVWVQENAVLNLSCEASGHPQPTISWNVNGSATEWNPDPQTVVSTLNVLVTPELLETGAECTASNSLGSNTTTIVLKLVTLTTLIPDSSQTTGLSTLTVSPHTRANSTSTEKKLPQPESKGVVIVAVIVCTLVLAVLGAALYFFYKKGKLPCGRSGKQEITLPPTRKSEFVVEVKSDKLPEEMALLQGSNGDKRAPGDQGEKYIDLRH
Description: as §3, §4

[4] = molecular target: T4, murine MCAM-Fc (extracellular domain of murine MCAM fused to human IgG) (mouse, UniProt Q8R2Y2 24-563); experiment: ForteBio Octet Red, anti-human IgG Fc biosensor loaded with mouse MCAMhFc (5 ug/ml), dipped into clone 17 (5 ug/ml) or SP2 media
T4 construct: extracellular domain; Produced in CHO cells; also called mouse MCAM-Fc protein; full length mouse MCAMhFc protein; not shown: human IgG (Fc) part
T4 sequence (looked up): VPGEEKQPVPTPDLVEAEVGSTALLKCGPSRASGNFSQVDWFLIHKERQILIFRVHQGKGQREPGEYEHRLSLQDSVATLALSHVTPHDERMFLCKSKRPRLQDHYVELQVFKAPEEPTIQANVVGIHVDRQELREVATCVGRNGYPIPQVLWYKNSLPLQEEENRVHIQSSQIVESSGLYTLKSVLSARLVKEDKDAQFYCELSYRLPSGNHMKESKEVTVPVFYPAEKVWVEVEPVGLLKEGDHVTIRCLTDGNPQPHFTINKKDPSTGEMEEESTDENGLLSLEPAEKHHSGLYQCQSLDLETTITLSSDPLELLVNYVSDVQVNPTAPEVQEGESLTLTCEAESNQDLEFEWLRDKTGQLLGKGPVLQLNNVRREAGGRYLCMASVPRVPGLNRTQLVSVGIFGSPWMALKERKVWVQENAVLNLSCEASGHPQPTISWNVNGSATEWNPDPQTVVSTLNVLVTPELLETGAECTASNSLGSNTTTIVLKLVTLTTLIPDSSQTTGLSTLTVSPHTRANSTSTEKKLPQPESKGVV
Text: as §1, §2

[5] = molecular target: T5, Murine MCAM domain 1 (Ig1) with human IgG Fc tag (mouse, UniProt Q8R2Y2 24-131, limits assumed); experiment: ForteBio Octet Red, domains on anti-human IgG Fc biosensors
T5 construct: domain: domain 1 (Ig1); also called MCAM Fc domain 1; not shown: human IgG Fc tag
T5 sequence (looked up): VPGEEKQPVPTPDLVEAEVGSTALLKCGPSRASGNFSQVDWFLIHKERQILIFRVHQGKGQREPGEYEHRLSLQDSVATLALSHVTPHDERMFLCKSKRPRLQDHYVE
Text: as §1

[6] = molecular target: T6, Murine MCAM domain 1 and 2 (Ig1-2A) with human IgG Fc tag (mouse, UniProt Q8R2Y2 24-244, limits assumed); experiment: as above
T6 construct: domain: domain 1 and 2 (Ig1-2A); also called MCAM Fc domains 1 and 2; not shown: human IgG Fc tag
T6 sequence (looked up): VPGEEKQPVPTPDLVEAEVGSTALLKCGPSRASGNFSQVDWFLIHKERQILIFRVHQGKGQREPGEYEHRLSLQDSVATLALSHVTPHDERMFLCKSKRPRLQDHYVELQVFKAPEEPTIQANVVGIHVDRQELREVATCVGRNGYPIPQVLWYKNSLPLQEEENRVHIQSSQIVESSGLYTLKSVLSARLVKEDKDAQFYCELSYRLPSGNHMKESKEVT
Text: as §1

[7] = molecular target: T7, Recombinant human laminin-α4 (R&D systems) (human, UniProt Q16363-2 826-1816); experiment: SPR (Biacore T200), MCAM IgG1-2A captured by anti-Fc IgG, laminin in solution
T7 construct: also called laminin 4A chain; laminin A4 (α4) chain
T7 sequence (looked up): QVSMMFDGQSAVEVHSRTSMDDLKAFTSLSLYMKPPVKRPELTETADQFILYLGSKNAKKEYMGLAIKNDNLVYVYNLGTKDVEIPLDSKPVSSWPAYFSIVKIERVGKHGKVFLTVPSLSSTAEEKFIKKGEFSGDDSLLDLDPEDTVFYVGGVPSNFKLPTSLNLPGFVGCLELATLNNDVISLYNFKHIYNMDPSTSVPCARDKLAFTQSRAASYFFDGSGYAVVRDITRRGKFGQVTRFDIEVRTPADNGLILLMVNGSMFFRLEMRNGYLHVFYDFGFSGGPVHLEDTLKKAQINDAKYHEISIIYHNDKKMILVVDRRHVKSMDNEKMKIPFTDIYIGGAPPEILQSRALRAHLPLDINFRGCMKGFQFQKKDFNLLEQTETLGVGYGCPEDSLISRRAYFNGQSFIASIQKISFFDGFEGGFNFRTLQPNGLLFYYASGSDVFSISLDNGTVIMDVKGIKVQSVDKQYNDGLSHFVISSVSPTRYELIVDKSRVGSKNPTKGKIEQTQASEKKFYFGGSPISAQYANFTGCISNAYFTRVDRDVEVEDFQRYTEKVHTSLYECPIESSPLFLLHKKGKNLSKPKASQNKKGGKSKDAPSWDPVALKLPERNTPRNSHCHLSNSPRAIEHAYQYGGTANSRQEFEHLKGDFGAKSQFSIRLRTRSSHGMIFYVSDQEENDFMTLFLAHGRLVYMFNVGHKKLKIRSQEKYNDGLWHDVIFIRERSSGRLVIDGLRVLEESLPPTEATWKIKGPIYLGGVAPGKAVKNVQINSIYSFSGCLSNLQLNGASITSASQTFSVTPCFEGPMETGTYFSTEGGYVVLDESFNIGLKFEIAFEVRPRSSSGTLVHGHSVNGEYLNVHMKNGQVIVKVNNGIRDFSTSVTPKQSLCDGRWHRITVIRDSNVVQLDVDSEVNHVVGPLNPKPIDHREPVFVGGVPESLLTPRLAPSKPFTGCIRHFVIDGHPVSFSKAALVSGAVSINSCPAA
Description: The binding affinity of the human laminin-α4 to human MCAM IgG1-2A was measured by Surface Plasmon Resonance on a Biacore T200 machine. Human Fc-specific F(ab′)₂ IgG (Jackson Laboratories) was immobilized on a CM5 chip using amine coupling. The four flow cells of the CM5 chips dextran surface are activated by a 7 min injection of freshly prepared 1:1 50 mM NHS: EDC at a flow rate of 5 μl/min. 70 μl IgG solution (pH 4.5) was injected for 3 min to a density of up to 3 000 RU. The coupling is then blocked by a 7 min injection of 1M ethanolamine to deactivate residual reactive sites. Recombinant human Fc-tagged MCAM IgG1-2A in degassed and filtered HBS-P buffer containing 12 mg/ml BSA and 12 mg/ml carboxy-methylated dextran sodium salt was captured by anti-Fc IgG to a capture level 1560 RU. Recombinant human Fc-tagged MCAM IgG1-2A was centrifuged at 14 000 rpm for 5 min at 4° C. before injection for 20 min at a flow rate of 5 μl/min over the anti-Fc IgG containing surface. Flow cell 1 was left free of IgG to serve as a control surface. One flow cell was used to capture recombinant human IgG1 Fc (R&D systems) to serve as a negative control. […] Buffer injections served as negative control. Data evaluation: Data from the buffer injections and the control surface were subtracted to remove artifacts. […]

[8] = molecular target: T8, Recombinant human laminin 511 (Biolamina) (human, UniProt O15230 36-3695; P07942 22-1786; P11047 34-1609); experiment: SPR (Biacore T200)
T8 construct: Trimer α5β1γ1, bought; negative control

binding result [1]: no binding (tested: 5 ug/ml)
binding result [2]: binds
binding result [3]: binds
binding result [4]: binds
binding result [5]: binds
binding result [6]: binds
B1: clone 17 monoclonal antibody (rat anti-MCAM) (antibody, V domains shown)
VH: EVQLVESGGGLVQPGRSLKLSCAASGFTFSNYYMAWVRQAPTKGLEWVASISFEGNRNHYGDSVKGRITISRDNAKSTLYLQMTSLRPEDTATYYCARHRGYSTNFYHDVLDAWGQGALVTVSS
VL: DVQMTQSPSYLATSPGESVSISCKASKNIDTYLAWYQEKPGKTNKLLIYSGSTLQSGTPSRFSGSGSGTDFTLTIRNLESEDFAVYYCQQHNEYPLTFGSGTKLEIKR
notes: Rat monoclonal from a hybridoma (Lou/M rats immunized with murine MCAM-Fc); also called anti-MCAM clone 17

Kd [7]: 60 nM
binding result [8]: no binding (tested: 5-175 nM)
B2: Recombinant human Fc-tagged MCAM IgG1-2A (Fc fusion)
chain: PRVAGVPGEAEQPAPELVEVEVGSTALLKCGLSQSQGNLSHVDWFSVHKEKRTLIFRVRQGQGQSEPGEYEQRLSLQDRGATLALTQVTPQDERIFLCQGKRPRSQEYRIQLRVYKAPEEPNIQVNPLGIPVNSKEPEEVATCVGRNGYPIPQVIWYKNGRPLKEEKNRVHIQSSQTVESSGLYTLQSILKAQLVKEDKDAQFYCELNYRLPSGNHMKESREVT
notes: also called human MCAM IgG1-2A; MCAM Fc domains 1 and 2; not shown: human Fc tag
